According to US20200109188A1 (AstraZeneca / MedImmune, published 2020):

Experiments:
[1] = biological target: HA subtype H10 (A/chicken/Germany/N49 (H10N7)) on HEK cells (influenza A virus, UniProt P12581 17-561); test: flow cytometry, HA-transfected HEK cells, 5 ug/ml antibody
[2] = biological target: HA subtype H13 (A/gull/Maryland/704/77 (H13N6)) on HEK cells (influenza A virus, UniProt P13103 19-566); test: as above
[3] = biological target: HA subtype H4 (A/duck/Czechoslovakia/56 (H4N6)) on HEK cells (influenza A virus, UniProt P19696 17-564); test: as above
[4] = biological target: HA subtype H14 (A/mallard/Astrakhan/263/82 (H14N5)) on HEK cells (influenza A virus, UniProt P26136 18-568); test: as above
[5] = biological target: HA of A/Hong Kong/8/68 (H3N2) virus (influenza A virus); test: cell-based or functional assay
[6] = biological target: HA of A/Wisconsin/67/05 (H3N2) virus (influenza A virus); test: cell-based or functional assay
[7] = biological target: HA of A/New Jersey/8/76 (H1N1) virus (influenza A virus); test: cell-based or functional assay
[8] = biological target: HA of H3-LA87 (A/Los Angeles/7/09 (H3N2)) virus (influenza A virus); test: cell-based or functional assay
[9] = biological target: HA of ca A/teal/Hong Kong/W312/97 (H6N1) virus (influenza A virus); test: cell-based or functional assay
[10] = biological target: HA of ca A/Hong Kong/213/03 (H5N1) virus (influenza A virus); test: cell-based or functional assay
[11] = biological target: HA subtype H12 (A/duck/Alberta/60/76 (H12N5)) on HEK cells (influenza A virus, UniProt P03446 17-564); test: flow cytometry, HA-transfected HEK cells
HA subtype H12 (A/duck/Alberta/60/76 (H12N5)) on HEK cells, sequence (P03446 17-564): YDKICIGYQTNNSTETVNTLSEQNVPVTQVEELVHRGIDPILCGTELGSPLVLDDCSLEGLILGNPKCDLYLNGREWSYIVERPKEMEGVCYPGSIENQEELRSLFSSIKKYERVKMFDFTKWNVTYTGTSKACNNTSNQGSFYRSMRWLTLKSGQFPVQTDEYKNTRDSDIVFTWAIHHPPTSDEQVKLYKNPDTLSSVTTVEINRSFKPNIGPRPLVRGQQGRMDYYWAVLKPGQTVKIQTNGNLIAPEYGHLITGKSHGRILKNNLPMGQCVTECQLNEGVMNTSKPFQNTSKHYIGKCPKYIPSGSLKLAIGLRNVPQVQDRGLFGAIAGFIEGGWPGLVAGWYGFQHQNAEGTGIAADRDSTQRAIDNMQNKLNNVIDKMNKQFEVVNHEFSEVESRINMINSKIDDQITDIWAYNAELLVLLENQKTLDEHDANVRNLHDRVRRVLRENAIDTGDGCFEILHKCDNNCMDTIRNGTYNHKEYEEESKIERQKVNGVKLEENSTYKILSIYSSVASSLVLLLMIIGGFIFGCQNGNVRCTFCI

HA subtype H10 (A/chicken/Germany/N49 (H10N7)) on HEK cells, sequence (P12581 17-561): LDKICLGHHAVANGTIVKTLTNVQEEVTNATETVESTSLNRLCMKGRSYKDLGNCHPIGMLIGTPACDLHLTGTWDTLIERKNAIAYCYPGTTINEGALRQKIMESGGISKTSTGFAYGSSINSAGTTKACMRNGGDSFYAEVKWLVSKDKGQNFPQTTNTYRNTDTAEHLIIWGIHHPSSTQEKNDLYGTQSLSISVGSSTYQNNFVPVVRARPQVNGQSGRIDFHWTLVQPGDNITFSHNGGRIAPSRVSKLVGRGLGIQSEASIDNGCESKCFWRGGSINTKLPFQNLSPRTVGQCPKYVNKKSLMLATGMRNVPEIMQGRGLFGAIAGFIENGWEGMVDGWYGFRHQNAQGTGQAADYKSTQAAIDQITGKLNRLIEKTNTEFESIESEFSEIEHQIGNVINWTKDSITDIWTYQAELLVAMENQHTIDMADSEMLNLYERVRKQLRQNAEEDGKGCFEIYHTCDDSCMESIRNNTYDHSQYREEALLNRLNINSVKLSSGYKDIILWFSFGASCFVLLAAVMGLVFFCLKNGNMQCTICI
HA subtype H13 (A/gull/Maryland/704/77 (H13N6)) on HEK cells, sequence (P13103 19-566): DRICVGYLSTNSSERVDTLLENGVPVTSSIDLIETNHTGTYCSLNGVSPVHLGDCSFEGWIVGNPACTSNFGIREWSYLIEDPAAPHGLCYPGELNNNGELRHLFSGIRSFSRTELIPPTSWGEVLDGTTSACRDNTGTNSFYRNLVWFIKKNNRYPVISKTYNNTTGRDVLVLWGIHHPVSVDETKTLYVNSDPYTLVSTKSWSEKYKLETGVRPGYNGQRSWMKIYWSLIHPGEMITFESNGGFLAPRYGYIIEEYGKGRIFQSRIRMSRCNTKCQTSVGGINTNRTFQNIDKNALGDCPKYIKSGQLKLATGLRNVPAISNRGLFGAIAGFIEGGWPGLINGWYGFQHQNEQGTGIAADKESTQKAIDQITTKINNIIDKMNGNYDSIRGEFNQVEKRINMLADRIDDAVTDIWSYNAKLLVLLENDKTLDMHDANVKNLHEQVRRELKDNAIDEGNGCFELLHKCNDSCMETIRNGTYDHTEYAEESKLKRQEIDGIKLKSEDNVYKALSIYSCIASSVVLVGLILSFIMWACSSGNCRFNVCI
HA subtype H4 (A/duck/Czechoslovakia/56 (H4N6)) on HEK cells, sequence (P19696 17-564): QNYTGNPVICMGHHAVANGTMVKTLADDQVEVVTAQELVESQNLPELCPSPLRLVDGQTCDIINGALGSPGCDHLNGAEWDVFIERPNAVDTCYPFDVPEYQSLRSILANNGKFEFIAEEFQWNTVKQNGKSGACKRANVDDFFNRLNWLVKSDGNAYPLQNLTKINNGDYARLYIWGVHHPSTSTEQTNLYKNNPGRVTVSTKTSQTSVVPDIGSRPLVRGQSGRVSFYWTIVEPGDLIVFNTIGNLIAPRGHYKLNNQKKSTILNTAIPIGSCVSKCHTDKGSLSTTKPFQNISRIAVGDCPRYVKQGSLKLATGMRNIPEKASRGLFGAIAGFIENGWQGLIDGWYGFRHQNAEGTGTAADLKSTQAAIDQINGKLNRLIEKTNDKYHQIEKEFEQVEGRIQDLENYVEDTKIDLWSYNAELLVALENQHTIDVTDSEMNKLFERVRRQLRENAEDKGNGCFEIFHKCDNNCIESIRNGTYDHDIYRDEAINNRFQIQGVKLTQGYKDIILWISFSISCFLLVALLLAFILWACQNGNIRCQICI
HA subtype H14 (A/mallard/Astrakhan/263/82 (H14N5)) on HEK cells, sequence (P26136 18-568): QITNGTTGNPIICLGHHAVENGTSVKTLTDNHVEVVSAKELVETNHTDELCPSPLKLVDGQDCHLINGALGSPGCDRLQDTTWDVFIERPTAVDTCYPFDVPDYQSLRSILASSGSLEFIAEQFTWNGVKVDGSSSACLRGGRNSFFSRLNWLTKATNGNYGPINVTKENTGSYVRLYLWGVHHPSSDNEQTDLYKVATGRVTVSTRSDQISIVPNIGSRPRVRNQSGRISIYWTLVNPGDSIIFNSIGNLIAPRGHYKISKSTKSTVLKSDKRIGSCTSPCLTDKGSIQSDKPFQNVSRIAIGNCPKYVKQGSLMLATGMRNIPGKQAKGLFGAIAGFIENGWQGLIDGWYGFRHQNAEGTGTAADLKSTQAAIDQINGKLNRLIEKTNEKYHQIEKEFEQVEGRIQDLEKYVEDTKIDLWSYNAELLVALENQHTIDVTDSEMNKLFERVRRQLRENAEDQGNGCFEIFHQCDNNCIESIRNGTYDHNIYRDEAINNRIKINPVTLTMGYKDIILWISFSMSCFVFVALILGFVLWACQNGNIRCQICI

B1: Antibody 3 (antibody, V domains shown)
VH: QVQLQESGPGLVKPSQTLSLTCAISGDSVSSNNAVWNWIRQSPSRGLEWLGRTYYRSKWYNDYAESVKSRITVNPDTSKNQFSLHLKSVTPEDTAVFYCVRSGHITVFGVNVDAFDMWGQGTMVTVSS
VL: DIQMTQSPSSLSASVGDRVTITCRTSQSLSSYLHWYQQKPGKAPKLLIYAASSLQSGVPSRFSGSGSGTDFTLTISSLQPEDFATYYCQQSRTFGQGTKVEIK
binding result [1]: binds | binding result [2]: binds | binding result [3]: binds | binding result [4]: binds | Neutralization IC50, H3-HK68 [5]: 0.68 mg/L | Neutralization IC50, H3-Wl05 [6]: 2.44 mg/L | Neutralization IC50, H1-NJ76 [7]: 1.41 mg/L | Neutralization IC50, H3-LA87 [8]: 4.19 mg/L | Neutralization IC50, H6-HK97 [9]: 1.77 mg/L | Neutralization IC50, H5-HK03 [10]: 4.64 mg/L | binding result [11]: no binding (tested: 5 ug/ml)
